From the nanobody polyreactivity screen of Harvey et al. (2022)

experiment: yeast display, Sf9 membrane polyspecificity reagent, FACS + sequencing; frameworks hold sequencing errors
Outline: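 After 36–48 hours of galactose induction, yeast (Saccharomyces cerevisiae BJ5465) displaying a synthetic nanobody library were stained at 4 °C for 1 hour with 10% biotinylated, detergent-solubilized Sf9 membrane reagent. Streptavidin microbeads enriched the stained cells before FACS sorting into low and high (top ~1%) gates on anti-HA and streptavidin fluorescence. Each clone's polyreactivity label reflects its gate of origin.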

| Sequence | polyreactivity (PSR sort gate) |
| --- | --- |
| QVQLVESGGGLVQAGGSLRLSCAASGSIFYGNAMGWYRQAPGKERELVAAITRGTRTYYADSVKGRFTISRDNAKNTVYLQMNSLKPEDTAVYYCAAYLYVPYRYKYDYWGQGAQVTVSS | high polyreactivity |
| QVQLVESGGGLVQAGGSLRLSCAASGSIFYGNAMGWYRQAPGKERELVAGISWSGGSTYYADSVKGRFTISRDNAKNSVFLQMNSLKPEETAVYYCAAVRWGSYTLSDDYWGQGTQLTVSS | low polyreactivity |
| QVQLVESGGGLVQAGGSLRLSCAASGSIFYGYTMGWYRQEPGKERELVAAIRKSGGSTNYADSVKGRFTISRDNAKNNVYLQMNSLKPEDTAVYYCAAAYYRGRGYYWGQGTQVTVSS | high polyreactivity |
| QVQLVESGGGLVQAGGSLRLSCAASGSIFYHNAMGWYRQAPGKERELVAAITWSGSTTYYADSVKGRFTISRDYAKNTVYLQMNSLKPEDTAVYYCNAGNRHGHYDYYWGQCTQVTVSS | low polyreactivity |
| QVQLVESGGGLVQAGGSLRLSCAASGSIFYHYSMGWYRQAPGKERELVAAITRSGGSTYYADSVKGRFTISRDNAKNTVFLQMNSLNPEDTAVYYSAKDPDSYNFLTSNWYDYWGLGTQVTVSS | low polyreactivity |
| QVQLVESGGGLVQAGGSLRLSCAASGSIFYIYAMVWYRQAPGKERELVATITRGGSSYADSVKGRFTISRDNAKNTVYFQMNSLIPEDTAVYYCAADVFKYWSQQTSTVYDYWGQGTQVTVSS | high polyreactivity |
| QVQLVESGGGLVQAGGSLRLSCAASGSIFYKYMGWNRQAPGKERELVAAISWSGGRTYYADSVKGRFTISRDNAKNTVYLQMNSLKPEDTAVYYCNRVVLWRIGDKAFEYWGQGTQVTVSS | high polyreactivity |
| QVQLVESGGGLVQAGGSLRLSCAASGSIFYLNAMGWYRMAPGKERELVATISNGGSTNYADSVKGRFTISRDNAKNTVYLQMNSLKPEDTAVYYCAAASGGTVVGEGDYWGQGTQVTVSS | low polyreactivity |
| QVQLVESGGGLVQAGGSLRLSCAASGSIFYLNAMGWYRQAPGKERELVAAITNGGSTYADSVKGRFTISRDNAKNTVYLQMNSLKPEDTAGYYCATRSWELGDYWGQGTQVTVSS | low polyreactivity |
| QVQLVESGGGLVQAGGSLRLSCAASGSIFYLYAMGLYRQAPGKERELVAAITSIGGSTYADSVKGRFTISRDNAKNTVYLQMNSLKPEDTAVYYCNTDEYPLTVQVQYYYWGQGTQVTVSS | low polyreactivity |
| QVQLVESGGGLVQAGGSLRLSCAASGSIFYLYAMGWYRPAPGKERELVARITIRGGSTYYADSVKGRFTISRDNAKNTVYLQMNSLKPEDTAVYYCAARRPYGDYDYWGQGTQVTVSS | high polyreactivity |
| QVQLVESGGGLVQAGGSLRLSCAASGSIFYLYAMGWYRQAPGKERELVAAISSGGSTNYADSVKGRFTISRDNAKNTVYLQMNSLKPEDTAVYYCAAGYKRLHWPKSDSFHGMYYWGQGTQVTVSS | low polyreactivity |
| QVQLVESGGGLVQAGGSLRLSCAASGSIFYLYAMGWYRQAPGKERELVAAISWSTSGTYYADSVKGRFTISRDNAKNTVYLQMNSLKPEDTAVYYCAADVYSPWWYDYWGQGTQVTVSS | high polyreactivity |
| QVQLVESGGGLVQAGGSLRLSCAASGSIFYLYAMGWYRQAPGKERELVAAITSIGGSTYADSVKGRFTISRDNAKNTVYLQMNSLKPEDTALYYCNTDEYPLTVQVQYYYWGQGTQVTVSS | low polyreactivity |
| QVQLVESGGGLVQAGGSLRLSCAASGSIFYLYAMGWYRQAPGKERELVAAITWRGGITNYADSVKGRFTISRDNAKNTVYLQMNSLKPEDTAVYYCAADPYRFLATELYYWGQGTQVTVSS | low polyreactivity |
| QVQLVESGGGLVQAGGSLRLSCAASGSIFYLYAMGWYRQAPGKERELVASISSDGSTNYADSVKGRFTISRDNAKNTVYLQMNSLKPEDTAVYYCAADEGTGQASLSSNLYDYWGQGTQVTVSS | low polyreactivity |
| QVQLVESGGGLVQAGGSLRLSCAASGSIFYLYAMGWYRQAPGKERELVASISWGDSSTYYADSVKGRFTISRDNAKNTVYLQMNSLKPEDTAVYYCAADEYRQYALYDYWGQGTQVTVSS | low polyreactivity |
| QVQLVESGGGLVQAGGSLRLSCAASGSIFYLYAMGWYRQAPGKERELVATITASGGSTNYADSVKGRFTISRDNAKNTVYLQMNSLKPEDTAVYYCAAEYYYLVYYYKEIVAYDYWGQGTQVTVSS | high polyreactivity |
| QVQLVESGGGLVQAGGSLRLSCAASGSIFYLYAMGWYRQAPGKETEVVAAITSIGGSTYADSVKGRFTISRDNAKNTVYLQLNSLKPDDTAVYYCNTDVYPLTVQVQYYYWGQGTQVTVSS | low polyreactivity |
| QVQLVESGGGLVQAGGSLRLSCAASGSIFYLYTMGRYRQAPGKERELVAAITNGGSTDYADSVKGRFTISRDNAKNTVYLQMNSLKPEDTAVYYCNADPRYPVDELEYWVTTPYDYWGQGTQVTVSS | low polyreactivity |
| QVQLVESGGGLVQAGGSLRLSCAASGSIFYLYTMGWYRQAPGKERELVASITYSGGTYYADSVKGRFTISRDNAKNTVYLQINSLKPEDTAVYYCNADASYYLDDEYDYWGQGTQVTVSS | low polyreactivity |
| QVQLVESGGGLVQAGGSLRLSCAASGSIFYNAMGWYRQAPGKERELVASISWSGGTSTYYADSVKGRFTISRDNAKNTVYLQMNSLKPEDTAVYYCAKASRYSSYWMYYWGQGTQVTVSS | high polyreactivity |

| Sequence | polyreactivity (PSR sort gate) |
| --- | --- |
| QVQLVESGGGLVQAGGSLRLSCAASGSIFYNNAMGWYRQAPGKERELVATIRRSGGSTYYADSVKGRFTISRDNAKNTVYLQMNSLKPEDTAVYYCAADYTPDLLSKVDYWGQGTQVTVSS | low polyreactivity |
| QVQLVESGGGLVQAGGSLRLSCAASGSIFYNYAMGWYRQAPGKEREFVAAISRSGGSTYYADSVKGRFTISRDNAKNTVYLQMNSLKPEDSAVYYCAASTRYSAFYPYGYWGQGTQVTVSS | high polyreactivity |
| QVQLVESGGGLVQAGGSLRLSCAASGSIFYNYAMGWYRQAPGKERELVAAISGSGGSTYYADSVKGRFTISRDNAKNTVYGQMNSLKPEDTAVYYCSTSGPQYYSRNFDYWGQGTQVTVSS | low polyreactivity |
| QVQLVESGGGLVQAGGSLRLSCAASGSIFYPNAMGWYRQAPGKERELVAAINGGGSTYYADSVKGRFTISRDNAKNTVYLQMNSLKPEDTAVYYCAADSNDVYYDTPSYDYWGQGTQVTVSS | low polyreactivity |
| QVQLVESGGGLVQAGGSLRLSCAASGSIFYPNAMGWYRQAPGKERELVAVITGGATTYYADSVKGRFTISRDNAKNTVYLQMNSLKPEDTAVYYCAADSAENVYRGYYWGQGTQVTVSS | low polyreactivity |
| QVQLVESGGGLVQAGGSLRLSCAASGSIFYPNAMGWYRQAPGKESELVAAISSSGGTNYADSVKGRFTISRDNAKNTVYLQMNSLKPEDTAVYYCAADIRSNRLYDGGYWGQGTQVTVSS | low polyreactivity |
| QVQLVESGGGLVQAGGSLRLSCAASGSIFYPYAMGWYRKAPGKERELVASITINDGSTYYADSVKGRFTISRDNAKHTFYLPMNRLIQEDPAVYYCNVDPVPGFGSVYEYWGQGTQVTVSS | low polyreactivity |
| QVQLVESGGGLVQAGGSLRLSCAASGSIFYPYAMGWYRQAPGKERELVAAIRNGGSTYYADSVKGRFTISRDNAKNTVYLHMNSLKPEDTAVYYCAASVRRRHPFEYWGQGTQVTVSS | high polyreactivity |
| QVQLVESGGGLVQAGGSLRLSCAASGSIFYPYAMGWYRQAPGKERELVAAISWSGTRTYYADSVKGRFTISRDNAKNTVYLQMNSLKPEDTAVYYCAAYLPGYREQVDTNSWGQGTQVTVSS | low polyreactivity |
| QVQLVESGGGLVQAGGSLRLSCAASGSIFYQNARGWYRQAPGKERELVAAISISDGSTYYADSVNGRFTISRDNAKNTVYLQMNILKPEDTAVYYCNADSLYYDPYDYWGQGTQVTVSS | low polyreactivity |
| QVQLVESGGGLVQAGGSLRLSCAASGSIFYQYAMGWYRQAPGKERELVAAISVRAGITYYADSVKGRFTISRDNAKNTVYLQMNSLKPEETAVYYGAKDHWTTSYDEGDYWGQGTQVTVSS | low polyreactivity |
| QVQLVESGGGLVQAGGSLRLSCAASGSIFYRNAMGCSRQARGKERELVAAISSSGTRTYYADSVKGRFTISRDNAKNTVYLQMNILKPEDTAVYYCAAGVVLWYRRRYYYWGQGTQVTVSS | high polyreactivity |
| QVQLVESGGGLVQAGGSLRLSCAASGSIFYRNAMGWYRQAPGKERELVAAISWSGASTSYADSVKGRFTISPDNAKNTVYLQMNSLIPDATAVYYCNAGKYAYLWLKLFAPKLDYWGQGTQVTVSS | low polyreactivity |
| QVQLVESGGGLVQAGGSLRLSCAASGSIFYRNAMGWYRQATGKERELVAAISASGGSTYYADSVKGRFTISRDNAKNTVYLQINSLKPEDTAVYYCAVEYRKSRSYYPYYYWGQGTQVTVSS | high polyreactivity |
| QVQLVESGGGLVQAGGSLRLSCAASGSIFYRNDMGWYRQAPGKERELVAAITWSGVNTYYADSVKGRFTISRDNAKNTVYLQMNSLKPEDTAVYYCAVPSRYWLNRGFDYWGQGTQVTVSS | low polyreactivity |
| QVQLVESGGGLVQAGGSLRLSCAASGSIFYRNVMGWYRQAPGKERELVASINFSGGSTYYADCVKGRFTISRDNAKNTVYLQMNSLKPEDTAVYYCAARTVHIYTRMYYWGQGTQVTVSS | high polyreactivity |
| QVQLVESGGGLVQAGGSLRLSCAASGSIFYRNVMGWYRQAPGKERELVATISRGGTSNYADSVKGRFTISRDNAKNTVYLQMNSLKPEDTAVYYCAAPIGDVYVGKGYDSWGQGTQVTVSS | low polyreactivity |
| QVQLVESGGGLVQAGGSLRLSCAASGSIFYRYAIGWYRHPPGKERELVAAITRGGTTYYADSVKGRFTISRDNAKNTVYLQMNSLKPEDSAVYYCAARLRYTTVIYYYWGQGTQVTVSS | high polyreactivity |
| QVQLVESGGGLVQAGGSLRLSCAASGSIFYRYAMGWNRQAPGKERELVATITQSGVSTYYADSEKGRFTISRDNAKNTVYLQMNSLKPEDTAVYYCAASYYYTIGPYFRKFDWGQGTQVTVSS | low polyreactivity |
| QVQLVESGGGLVQAGGSLRLSCAASGSIFYRYAMGWSRQAPGKERELVAAISSGSSTHYADSVKGRFTMSRDNAKNTVYLQMNSLKPEDTAVYYCAARYRAYTSTRRFDYWGQGTQVTVSS | high polyreactivity |
| QVQLVESGGGLVQAGGSLRLSCAASGSIFYRYAMGWYRQAPGKERELVAAIRWSGGSTYYADSVKGRFTISRDNAKNTVYLQMNSQKPEDTAVYYCATEVSYGGYWSWYGYWGQGTQVTVSS | low polyreactivity |
